Test results taken from patent US12247062 (1GLOBE BIOMEDICAL, dated 2025).

Target: T1, rituximab (RITUXAN), coated on CD20+ Daudi cells
T1 construct: also called MABTHERA; ZYTUX
Test: flow cytometry titrations compared: rituximab-coated Daudi cells against Jurkat cells (CD3)
Source text: Figure 12: FIG. 12 schematically depicts an assay using Daudi cells to test the ability of an Adapter-like ADCC Enhancer of the present invention to bind CD20+ target cells coated with RITUXAN (rituximab). Figure 13: FIG. 13 illustrates FACS data showing, in an assay according to FIG. 12, the binding between Daudi cells and the ADCC Enhancer of the invention before purification ("Sample Load") and after purification ("Purified Protein"). Figure 14: FIG. 14 illustrates FACS data showing titration of binding between Daudi cells and the ADCC Enhancer of the invention at various concentrations. The volume of the Enhancer in microliters are indicated in the upper right corner of the top six diagrams as: 50, 25, 12.5, 6.25, 3.13 and 1.56 microliters. The bottom diagram summarizes the data. CD20+ Daudi cells were coated with RITUXAN (rituximab) (anti-CD20 antibody) and excess RITUXAN (rituximab) was removed by washing the cells with PBS. RITUXAN (rituximab)-coated cells were incubated with various amounts of the Enhancer, and excess Enhancer was removed by washing the cells in PBS. Bound Enhancer proteins were detected using fluorescent anti-human CD64 antibody.
With tagged protein, binding affinity can also be detected using a fluorescently tagged anti-tag antibody. This approach can also be used to detect binding of the CD64 domain by rituximab-coated CD20⁺ Daudi cells (see FIG. 12). […]

B1: CD64-dhOKT3 fusion protein (Adapter-like ADCC Enhancer) (other)
chain: QVDTTKAVITLQPPWVSVFQEETVTLHCEVLHLPGSSSTQWFLNGTATQTSTPSYRITSASVNDSGEYRCQRGLSGRSDPIQLEIHRGWLLLQVSSRVFTEGEPLALRCHAWKDKLVYNVLYYRNGKAFKFFHWNSNLTILKTNISHNGTYHCSGMGKHRYTSAGISVTVKELFPAPVLNASVTSPLLEGNLVTLSCETKLLLQRPGLQLYFSFYMGSKTLRGRNTSSEYQILTARREDSGLYWCEAATEDGNVLKRSPELELQVLSSGGGGSQVQLVQSGGGVVQPGRSLRLSCKSSGYTFTRYTMHWVRQAPGKGLEWIGYINPSRGYTNYNQKVKDRFTISRDNSKNTAFLQMDSLRPEDTGVYFCARYYDDHYCLDYWGQGTPVTVSSVEGGSGGSGGSGGSGGVDDIQMTQSPSSLSASVGDRVTITCRASSSVSYMNWYQQTPGKAPKRWIYDTSKVASGVPSRFSGSGSGTDYTFTISSLQPEDIATYYCQQWSSNPLTFGQGTKLQIT
notes: Expressed in Expi293 cells and used as culture supernatant or after IgG Sepharose purification; Untagged; also called Soluble Universal ADCC Enhancer Protein; SUAEP
How did the “fold stronger Fc- or antibody-binding than CD3-binding” value turn out when B1 was run?
Its value is ~30 fold.
